Experimental data: patent publication US9657088B2, “Anti-HSV antibody” (priority 2009, dated 2017)

Tests used:
[1] = tested on: patient derived HSV-1 isolate resistant towards Acyclovir, Foscarnet and Cidovovir; assay: Treatment of NOD/SCID mice infected with multi-resistant patient HSV-1 isolate; assay type: in vivo; settings: for protection against lethal encephalitis: 15 mg/kg i.v. at 24 h, 40 h and 56 h post infection
Source text: Mice receiving twice daily standard treatment with Acyclovir all died within 28 days.
Furthermore, the humanized mAb 2c-V1 also confers protection from viral dissemination and lethal encephalitis in the presence of an established peripheral HSV infection. […] In contrast, mice receiving Acyclovir all died (FIG. 12).

human DNA polymerase = settings: background statement; cited from earlier work
[2] = target: T1, glycoprotein B on surface of HSV-1 F infected Vero cells (Human herpesvirus 1, UniProt P06436); assay: Affinity constants (KD) by flow cytometry on HSV-1 F infected Vero cells; assay type: binding
T1 construct: expressing the gB-protein as membrane associated glycoprotein on the cell surface during the natural HSV replication cycle; endogenous in cells; host or cells: Vero cells infected with HSV-1 F (MOI 3); gB is made by the virus in the infected cell

[3] = tested on: HSV-1 laboratory strains and clinical isolates; assay: Neutralization of HSV-1 laboratory strains and clinical isolates (FIG. 8); assay type: cell-based
Experimental: (§1) To determine the titer of mAb h2c-V1 for complete virus neutralization several antibody concentrations were incubated for 1 h at 37° C. with 100 TCID50 of HSV-1 or HSV-2 isolates and incubated for 3 days with Vero cells. MAb hu2c-V1 neutralizes HSV-1 laboratory strains HSV-1 F, HSV-1 324 hv, HSV-1 17 syn^+, HSV-1 TK^− completely at concentrations of 7.8-15.6 nM. HSV-1 clinical isolates are neutralized by mAb h2c-V1 similarly irrespective of their resistance profile. Furthermore, the same neutralization efficiency of mAb hu2c-V1 was shown for strain HSV-2 G and ACV-resistant HSV-2 isolates at concentrations of 31.3-62.5 nM.

[4] = tested on: HSV-2 G and ACV-resistant HSV-2 isolates; assay: Neutralization of HSV-2 strain and isolates (FIG. 8); assay type: cell-based; settings: 100 TCID50, 3 days
Experimental: as §1

[5] = target: T2, gB present on the surface of HSV-1 infected Vero cells (Human herpesvirus 1, UniProt P06436); assay: Competition study with mAb 2c by flow cytometry; assay type: binding; settings: increasing concentrations, then 100 nM mAb 2c
T2 construct: endogenous in cells; host or cells: Vero cells infected with HSV-1 (3 moi, 20 h)

HSV-1 = assay: Plaque-reduction assay with or without human complement; assay type: cell-based; settings: 2 μg/ml, with or without 10% human complement
HSV-1 F [6] = assay: Cell-to-cell spread assay in Vero cell monolayers; assay type: cell-based; settings: 500 nM, 48 h
Experimental: Vero cells grown to confluency on glass cover slips in 24-weel tissue culture plates are infected for 4 h at 37° C. with a constant virus amount of 400 TCID50/well. One median tissue culture infective dose (1 TCID50) is the amount of a cytopathogenic agent, such as a virus, that will produce a cytopathic effect in 50% of the cell cultures inoculated. The virus inoculum is subsequently removed, the cells washed twice with PBS and further incubated for 2 days at 37° C. in 1 ml DMEM, 2% FCS, Pen/Strep containing an excess of either different anti-HSV antibodies or polyclonal anti-HSV control serum in order to prevent viral spreading via the supernatant Viral antigens of HSV-infected cells are detected with a fluorescence labelled polyclonal goat-anti-HSV-serum (BETHYL Labolatories, Montgomery, Tex. USA, Catalog No. A190-136F, Lot No. A190-136F-2).
Two days after infection spreading of the virus was detected with fluorescence labeled polyclonal goat-anti-HSV serum using a Leica DM IRE2 confocal microscope at 40-fold magnification.
For spreading within a host HSV uses two mechanisms: release of cell-free particles and direct, cell-to-cell spread. […] Viral antigens were detected by staining of HSV-1 infected cell monolayers with FITC-conjugated polyclonal goat-anti-HSV serum (BETHYL, Montgomery, Tex., USA) diluted 1:100 in blocking buffer. […]

HSV-1 F [7] = assay: Passive immunization of NOD/SCID mice 24 h before intravaginal HSV-1 challenge; assay type: in vivo; settings: 24 h prior to infection
Experimental: Mice were infected intravaginally with 1×10^6 TCID50/20 μl of the neurovirulent HSV-1 strain F. Infected mice with symptoms of weight loss, vulvitis/vaginitis or neurological diseases were killed, and their organs examined for infectious virus by titration on Vero cell monolayers as described previously. Non-infected mice were killed at day 30. Animals per group n=7.
Animals per group n=7 for PBS, n=9 all other groups.
(§2) Anesthetized female nonobese diabetic/severe combined immunodeficient (NOD-SCID) mice (NOD.CB17-Prkdc^scid/J, Charles River Laboratories, Research Models and Services, Sulzfeld, Germany), 6-8 weeks of age, were challenged intravaginally with 20 μl inoculum of 1×10^6 TCID50 HSV-1 F per mouse. Skin glue (Epiglu, Meyer-Haake Medical Innovations, Wehrheim, Germany) was applied onto the vulva to prevent discharge of the virus inoculum. […] Mice were examined daily after viral inoculation for loss of weight, vulvitis/vaginitis (redness, mucopurulent discharge and signs of inflammation) and neurological disease. Mice displaying any of theses symptoms were sacrificed immediately. […] Mice were assessed for infection by determination of virus titers from vaginal irrigations obtained on days 1, 2, 4, 6 and 8 after infection and at the time of death using the endpoint dilution assay on Vero cells. Viral loads in organs (spleen, adrenal gland, lung heart, liver, kidney, spinal cord, and brain) of sacrificed mice were determined after homogenization of organs by titration on Vero cell monolayers as described elsewhere (41). Each test and control group contained 9-10 animals with detectable HSV-1 infection.
Natural killer (NK) cells accumulating at the site of HSV-2 infection in humans (28) are the early source of interferon-γ (45), which plays an essential role for the control of HSV infection (2, 45, 62).

HSV-1 F [8] = assay: Post-exposure treatment of NOD/SCID mice with established HSV-1 infection; assay type: in vivo; settings: 15 mg/kg i.v. at 24 h, 40 h and 56 h post infection
Experimental: Infected animals per group n=7.
Vaginal virus titers of antibody or control treated mice were determined from vaginal irrigations cultured on Vero cell monolayers. Error bars indicate standard deviation.
as §2

Molecule: Nc1nc(=O)c2ncn(COCCO)c2[nH]1 [Acyclovir, 2-Amino-9-(2-hydroxyethoxymethyl)-3H-purin-6-on, reference compound]
- outcome of infection ([1]; standard treatment with Acyclovir): all died
- time by which all mice died ([1]; twice daily standard treatment): ≤ 28 days
- factor by which human DNA polymerase is less susceptible than viral DNA polymerase (human DNA polymerase): 30-50

B1: h2c-V1: humanized mAb 2c variant, CDR grafting onto DP28/DPK13, no backmutations (antibody, V domains shown)
VH: QVTLKESGPALVKPTQTLTLTCTFSGFSLSTSGMSVGWIRQPPGKALEWLAHIWWNNDKYYKPALKSRLTISKDTSKNQVVLTMTNMDPVDTATYYCARIYYGYRPYAMDYWGQGTLVTVSS
VL: DIVMTQTPLSLPVTPGEPASISCRSSQSIVHSNGNTYLEWYLQKPGQSPQLLIYKVSNRFSGVPDRFSGSGSGTDFTLKISRVEAEDVGVYYCFQGSHVPWSFGQGTKVEIKR
- affinity in comparison to mAb 2c [2]: affinity comparable to the murine mAb 2c
- concentration for complete neutralization ([3]; HSV-1 F, HSV-1 324 hv, HSV-1 17 syn+, HSV-1 TK−, 100 TCID50, 3 days): 7.8 to 15.6 nM
- neutralization of patient isolates clinically resistant to ACV, ACV and PFA, or ACV, PFA and CDV ([3]; compared with non-resistant laboratory strains): with the same efficiency as non-resistant laboratory strains or clinical isolates with unknown resistance
- concentration for complete neutralization [4]: 31.3 to 62.5 nM
- competition with parental mAb 2c for binding [5]: compete with the parental mAb 2c for binding to gB
- complement dependence of HSV neutralization (HSV-1): neutralize HSV complement-independent
- inhibition of cell-to-cell spread (HSV-1 F [6]): as efficient as the parenteral mAb 2c
- protection against lethal encephalitis (HSV-1 F [7]; 15 mg/kg i.v.): fully protected against lethal encephalitis
- survival (HSV-1 F [7]; single i.v. dose of 5 mg/kg): prolongs the survival
- protection from lethal outcome of established infection (HSV-1 F [8]): completely protected from the lethal outcome of infection
- protection against lethal encephalitis ([1]; listed as mAb 2c-V1): prevented lethal encephalitis
- protection against lethal encephalitis ([1]; listed as mAb hu2c-V1): significantly protected against lethal encephalitis
